Test: Delivery of cisPt&IgG1&Ins-GNPs into mice brain, Au and Pt measured by ICP-OES
Type: in vivo, Male BALB/c mice
Details: 8 hours after IV injection, after perfusion
Experimental: Male BALB/c mice were divided into four treatment groups: • Group 1: Anti-IgG1 & insulin-conjugated GNPs (IgG1&Ins-GNPs; n=2) • Group 2: Cisplatin & insulin-conjugated GNPs (CisPt&Ins-GNPs; n=2) • Group 3: Multifuctional GNPs (cisPt&IgG1&Ins-GNPs; n=2) • Group 4: Free cisplatin (n=2)
Mice were injected intravenously with IgG1&Ins-GNPs (200 μl, 25 mg/ml), cisPt&Ins-GNPs (200 μl of 25 mg/ml), cisPt&IgG1&Ins-GNPs (200 μl of 25 mg/ml), or with equivalent amounts of free cisplatin. Eight hours post injection, mice underwent perfusion to remove all the particles residing within the blood vessels. Then, mice brains were extracted and analyzed using ICP-OES to measure the amounts of Au and Pt that penetrated into the brain (FIGS. 6A and 6B, respectively).

Substance: cisPt&Ins-GNPs: GNPs conjugated with insulin and cisplatin; control particle
- amount of Pt within the brain compared with equivalent dose of free cisplatin: significantly higher

From US20240293561A1, “BRAIN PERMEABLE MULTIFUNCTIONAL SYSTEM AND USES THEREOF” (NANOCARRY THERAPEUTICS LTD., priority 2021, published 2024)
